Biological target: purified folded MHC-complex (Example 57)
Experiment: sandwich ELISA, W6/32 coated, HRP anti-β2m detection, OD450

Substance: W6/32 mouse-anti-HLA-ABC antibody (Dako M0736)
- OD450 ratio to the negative control β2m: > 6 fold

From patent publication EP2254592B1
